Data from the DeepSol protein solubility set.

assay: soluble on expression in E. coli; label from the status in PepcDB or PDB records

Sequence	soluble on expression in E. coli
MPIIYYDGNCVYCYNYAIWLIQHGLSTRYQFAKLQGDVAQNLLENYPEAQQYDSVILQEGDQLKYKSDAITTLITSLTNYKWLGILLRFVPNIIRDFGYQLFADNRNHMWKTHWHEPNDYEKSFFIDLEHHHHHH	not soluble
SLKIFTSKKGQLSQLKQQKFKLEKDIQRLFEENLTLLSGYIFIRSEFSIKNSRIDTLAFDPETQAFVIIEYKRQQNSSVVDQGISYLNLMLEYKADFIVEYNEKQKVPLKRNDVDWSQSKVIFVSPAFNDFQIQATNFKDLPIELWEVNRFDNDIITLNIINKSKSAPNIKAVSNEKREEFSILKEIKVYQESDHLADKTDFIQELYEDFKQGILNLDPDIEINTRKLYIAFKKDRNIADIRIQQKNLKIWINLPYGELDDPKNLAKNVSNTGHWGNGDYEITIESTQYLEYIMSLIKQAIKD	soluble
TMLCVLTTDAAAEPAALERALRRAAAATFDRLDIDGSCSTNDTVLLLSSGASEIPPAQADLDEAVLRVCDDLCAQLQADAEGVTKRVTVTVTGAATEDDALVAARQIARDSLVKTALFGSDPNWGRVLAAVGMAPITLDPDRISVSFNGAAVCVHGVGAPGAREVDLSDADIDITVDLGVGDGQARIRTTDLSHAYVEENSAYSS	soluble
MAHHHHHHMSTVEDFVLQALASTDAVESDKLAETLRVNHQDVVGAIKSLEADGYVVSEIKPKPTWKLTSEAENICESGSPEFLLWELLAGGAMTQEDIAEKFGKDVAAVAVANGMKAKIFALNKSEGKIIVTRSPSVSSFHDGIRVSLMRALKGEHVDPKEAETLKKRKLATLDNMKVFFVTKGPNYATQRRAKAVGDLTKEMLQDGSWKTAHFKEYNLGAAGREVGCGQLHPLLKVRQEFREIFMELGFREMETDRWVESSFWNFDALFIAQNHPARDVQDTFFVSKPSTHKLDHREVVDRVREMHEKNFNYTWKEEEARRNVLRTHTTCCSGYWLHHIAKSSPLLPNGRRDFCPGRYYSIDRVFRNEEMDRTHLCEFHQVEGCVIDRNISLSNMMHTFQLFFSRIGVEKLRFKPVFNPYTEPSMEIFGWHKQLKRWIEVGNSGLFRPEMLVPLGFDEDVTVMAWGLSLERPTMIKYGLSSIHELFGHKVDLRFIKQSKLMRF	soluble
MGSDKIHHHHHHMGKLLAINISKERGTEKREVPQAELVADYGIMGDAHAGKWHRQVSLLSAEKIDAFRARGAQIDNGAFGENLIISGFDFKNLPLGTRFCIGDAILEMTQIGKQCHSHCAIYKRMGECIMPKEGVFAVVIRGGQIHTGDEVKLIPANIYASIKDRPADSRCELLTVTEGAHAGEKALYIDGRIRVASGSAWADEINDNDNSIVMFKQQIGSRPRLIICGGGHVSAALVRMASLLAFDIWVIEDRPLFADNAKRQGADHVICGDYKKTLARLEPQADDYYVCMTRGHRFDMECLTEIFRKPYAYVGMMGSKKRAAIVKKDLEESGFSRENISGLHSPIGLAIGGQTPEEIALSVISEIVKCKNERTGCTQVDNEVLDALIEASDEKYILCTIIKKNGSAPRGVGTQMLVSSDNRIIGTIGGGCAEAEVISQCRRLFRKQEFKCGLMDVSMNTDDAEKEGMVCGGSISVLLEQLG	not soluble
MGSDKIHHHHHHMYYQLYELHHAALQPARTYADAIRLFYSNPLNPVSSTTWGRSIAAAAEMFERTTRRYGKPGFGITSTVVDGKEVRVQEKEVWSRPFCRLLHFERQLPARRKPDVKLLMVAPMSGHYATLLRGTVEAMLPHADVYITDWIDARMVPLSYGNFDLDDYIDYLIEMFHLLGPDASVMAVCQPSVPVLAAVALMEARGDPNLPSSMTLMGGPIDTRRNPTAVNRLAQEHGIEWFRDNVVMSVPWPNPGFMRPVYPGFLQLSGFMSMNLDRHIVAHEEFFMHLVKGDGDSAEKHREFYDEYLAVMDLTAEFYLQTVDTVFIRHALPKGEMTHRSERVDPASIRSVALLTVEGENDDISGIGQTKAAHDLCVNIPSGKRHHHLQPSVGHYGVFNGSRFRKEILPRIVRFVNENRGA	not soluble
MGSDKIHHHHHHMANSIPSGGNAFALPFAGSRHQFISATCTPDTFSDCLSQSLPPSSNEQAPLGVLRLVVAVSNQKQIGTVLEQLTKDFQALLSRAEVVVQPPFSGQVQISAWLVDTAAIADAPAVIGSPAALQWLFSASNAHALDDTQVSPAFSRQFYDGLESAHAQGHMPDDLLRTWIYIGGITQGPHDETRYQRVNAARQDAFREVSIGMGALCSPFPASTGIGTHGSSLTLGMLSCKIRSGMRVVALENRRQTSAFQYPKEESLIAPLFSRAVAILGDAQAMVFVSGTASIIGAKSVHVGNIEQQTRQTLENINNLLSARLLSDYDCYPATSGLESIVSYTVYIKRREDITVVRAVCAALLPERAVATFVQADVCRTELLVEIEAVAVMPE	not soluble
QDSDSTAAVAVLKRAVELDAESRYQQALVCYQEGIDMLLQVLKGTKESSKRCVLRTKISGYMDRAENIKKYLDQEKEDGK	soluble
MSEVNIVVNGREAGSKSKGCALCGATWGDYHADFLGEDLFFCCDICAAEFMNMMDEAFKHTARHNVDELHIDGNYQLGRNVLLKNGEDRLRFYVKFGPGAVIKEFKITD	soluble
MTKPVLQDGETVVCQGTHAAIASELQAIAPEVAQSLAEFFAVLADPNRLRLLSLLARSELCVGDLAQAIGVSESAVSHQLRSLRNLRLVSYRKQGRHVYYQLQDHHIVALYQNALDHLQECR	soluble
MTAQTLYDKLWNSHVVREEEDGTVLLYIDRHLVHEVTSPQAFEGLKMAGRKLWRIDSVVSTADHNTPTGDWDKGIQDPISKLQVDTLDKNIKEFGALAYFPFMDKGQGIVHVMGPEQGATLPGMTVVCGDSHTSTHGAFGALAHGIGTSEVEHTMATQCITAKKSKSMLISVDGKLKAGVTAKDVALYIIGQIGTAGGTGYAIEFGGEAIRSLSMESRMTLCNMAIEAGARSGMVAVDQTTIDYVKDKPFAPEGEAWDKAVEYWRTLVSDEGAVFDKEYRFNAEDIEPQVTWGTSPEMVLDISSKVPNPAEETDPVKRSGMERALEYMGLEAGTPLNEIPVDIVFIGSCTNSRIEDLREAAAIAKDRKKAANVQRVLIVPGSGLVKEQAEKEGLDKIFIEAGFEWREPGCSMCLAMNADRLTPGQRCASTSNRNFEGRQGNGGRTHLVSPAMAAAAAVTGRFTDIRMMA	not soluble
MILCSEKEKCEGIKNSKDEGIIPRVLILSTLQGEPSREKAKIGIFGINPGPHLPFERLYYTDILKKHGLFTSEYSKSNAIKAFKEIHDTWVSEFIKNYRNYPFHYKYFANTLEFLKKAKTVLIYRRKYNSVWRISILLEHHHHHH	not soluble
GSALRELKVCLLGDTGVGKSSIMWRFVEDSFDPNINPTIGASFMTKTVQYQNELHKFLIWDTAGLERFRALAPMYYRGSAAAIIVYDITKEETFSTLKNWVRELRQHGPPSIVVAIAGNKCDLTDVREVMERDAKDYADSIHAIFVETSAKNAININELFIEISRRIPST	soluble
MAHHHHHHMQAQMMLGQALEHYAMMDFANLVLEQCWDICYDSQLTRPELAGGALPDVKAQKMDACARKCVARHFEVLTLLSATRELREKERMQGLPPGTLTSM	not soluble
MNKSNNEPFNQVLDKHLSRRNFVKSGLGLGAMTAFAGMGLTGCGSDSSSSPIPVDPVPPLPPTKSSAKLNFTSVKGARLNAVVVPEGYSAQVLAPWGTPLNAKAAPWKADGSNTADDQANSVGMHHDGMHFFPLNQAGDDGLLCINHEYIDEIALHPNGPTVDATTGLRTIVDEVRKEINAHGVSVVRIKLTNNQWEVVYNDKHNRRFTGATVMDIAGPLAYSPLLETRYSPDGSQARGTLNNCGNGYTPWGTYLTCEENWPEYFVNRSTLTRDQIRIGISKTSSRYGWDDLAGQDEERLDEFSRFDVTPKGVSARDDYRNEANGHGYIVEIDPYNPTSRAIKRTALGRFRHEGCTFGKLSEGQPVVFYSGHDARFEYLYKFVSAAPWNPQDANSSNRLEIGDKYMNEGTLYAAKFNENGVGAWLPLTLDSQTTDGKTLGNSFASLADIILNTAGAADLLGATPMDRPEWCAVDPFTGSVYLTLTNNSKRTEANPANPRLKNNFGHIIRWDEADKETEFTWDIFVFGSPSDGNAETNLSGLTDLNQFASPDGLAFDKRGILWVQTDNGAEEVAEETNDQMLAIVPSTLLDSANKQTSVTAKNQMELKRFFVGPNDCEVTGFAISPDYKTVFANIQHPGNWPYSNNAAEVTPTGVVLRPRAATVVIRKLDGKEVAVLEHHHHHH	soluble
MDFSLTEEQELLLASIRELITTNFPEEYFRTCDQNGTYPREFMRALADNGISMLGVPEEFGGIPADYVTQMLALMEVSKCGAPAFLITNGQCIHSMRRFGSAEQLRKTAESTLETGDPAYALALTEPGAGSDNNSATTTYTRKNGKVYINGQKTFITGAKEYPYMLVLARDPQPKDPKKAFTLWWVDSSKPGIKINPLHKIGWHMLSTCEVYLDNVEVEESDMVGEEGMGFLNVMYNFEMERLINAARSTGFAECAFEDAARYANQRIAFGKPIGHNQMIQEKLALMAIKIDNMRNMVLKVAWQADQHQSLRTSAALAKLYCARTAMEVIDDAIQIMGGLGYTDEARVSRFWRDVRCERIGGGTDEIMIYVAGRQILKDYQNK	soluble
MAGDPMREITDIAVAESGDSDFKERLETKNAKSWLKSVSAFANGIGGTLYFGVEDRTRRIIGVQDIQLTISKITELIVARITPRPVFECIPLQQKGKDILAVRVDSGKHTPFYYVHDHHHTAYIRMGDESVPATDYQLNELILKGRNETYDSQITEKLRTDYSFTLLEATYLHTLNQHMSDSDYVSFGLAVEDGRLTNAGLLFADQCPLPDSRVFCTRWNGLQRGSVHEDATDDAEYSGNLIYLLKSATEFIRRNTRKGWTKTANGRVEKPDYAERAYFEGVVNALIHRTYDFRGTEVHVEMYDDRLVISSPGGIYGGGELEPMSDGSYISKRRNPILADIFSRLRYMERRGSGIKKIFEATKNLYGYTEEKKPFFLVNKQNDFFLTIPNVNYRSESVTTHDTIHDTIHDTIHDTIHDKIALLLSFCQTPRSREEMMEFVGLRNRDHFQKKYLRPLLEQEKIEMTIPEKPQSKNQKYRTKEVVKLEHHHHHH	soluble
MGSDKIHHHHHHMSDAKLQSVLSSLSQVARQLDALPSDTPAPDSSWVKLNTNENPFPLPEIIMQSAIAALERQYLYPEDDNISLREAAANAYSVSMDQVIAGNGSSELLGLVYRAFLTPGDSVAMMSPGFSFNRKLATLQGAQFVEIEFSKDHSLPMEQLLFGPAKDAKFILLANPNNPTGTFVPVADIERLVAKSDRLIVLDEAYVDFAPENGLRLINRYSNLLVLRTFSKSYAAAGVRVGFGFGHPEIIGRLRNIQNVFNMNVIGQAVGISVLAHRAAYADNHRHIRHERRRVTLALSQLGFSVIPSHANFLLARVPTAQDGSWWQSAFARQKILVAVFPDKGLENYIRVSIGTKEQMDAFLRAASRISRILNMSTPPR	not soluble
MGSDKIHHHHHHKQTVSSESTEELDDASKVINYYHMSLAVLRHVANAKDINAVLGYMEQTGKVPEVDPIAPPEIAARDTAELLDPGDYFNPEVRQNLKQNYAGLFNVRTQFYDNFNKFLAYKKSKDTAKTAQLLDENYKLSVELSEYKQVIFDILSPLTEQAESELLADEPLKDQIMAMRKMSGTVQSIMNLYSRKHAMDGVRIDLKMAELEKELKAAEKIPAVTGYDEELKNFQSFLSTVKSFMNDMQKARSKGAYSDKEYQAMSEAYEYGLSVI	not soluble
MRTPLSSVSPQLVQRFHELGFTPSSIRNFLGRPGFAAISRGEPASVLYAMRENEDSDFYPLIATFILHRPVAAEALHRVLGGSLTDQLTETGVLEIVDASKAYLTAKIDIRWLELEDDLFWVFSDTDASMIADHVPGKDHVLGVGAASLSL	not soluble
